According to patent US20250206820A1 (NGM BIOPHARMACEUTICALS, published 2025):
Like-named read-outs stand apart in the source and are kept apart here.

Legend:
[1] = biological target: T1, human ILT3 (as used in the affinity measurements) (human, UniProt Q8NHJ6 22-259, limits assumed); assay: column 'ILT3 Affinity (nM)'; method and format not stated
T1 construct: also called immunoglobulin-like transcript 3

[2] = biological target: T1, human ILT3 (as used in the affinity …); assay: comparison of the affinity of Hz45G10 for human ILT3 with that of the CD3 scFv for CD3
[3] = biological target: T2, ILT3 on target cells (MOLM13, OCI-AML-2, NALM-1, THP-1, MM1S, H929, U226B1 and other lines) (human, UniProt Q8NHJ6 22-448); assay: cell-based or functional assay
[4] = biological target: T2, ILT3 on target cells (MOLM13, …); assay: cell-based or functional assay; remark: listed apart in the source
[5] = biological target: T2, ILT3 on target cells (MOLM13, …); assay: cell-based or functional assay; remark: listed apart in the source
[6] = biological target: T2, ILT3 on target cells (MOLM13, …); assay: cell-based or functional assay; remark: listed apart in the source
[7] = biological target: T2, ILT3 on target cells (MOLM13, …); assay: cell-based or functional assay; remark: listed apart in the source
[8] = biological target: T2, ILT3 on target cells (MOLM13, …); assay: cell-based or functional assay; remark: listed apart in the source
[9] = biological target: T3, CD3 (as used in the affinity measurements) (human, UniProt P07766 23-126); assay: SPR
T3 construct: the description gives human CD3 as UniProtKB P07766; also called human CD3
T3 sequence (P07766 23-126): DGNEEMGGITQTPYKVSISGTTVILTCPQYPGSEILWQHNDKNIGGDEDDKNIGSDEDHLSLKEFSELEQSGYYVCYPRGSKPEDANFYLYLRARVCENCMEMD

B1: 3A3 anti-ILT3 antibody (antibody, V domains shown)
VH: QVQLKESGPGLVAPSQSLSITCTVSGFSLTSYGVHWVRQPPGKGLEWLGVIWPGGTINYNSALMSRLSISKDNSKSQVFLKLNSLQTDDTAMYYCASDKYDGGWFAYWGQGTLVTVSA
VL: DIVMTQSQKFMSTSVGDRVSITCKASQNVRTAVAWYQQKPGQSPEALIYLASNRHTGVPDRFTGSGSGTDFSLSISNVQSEDLADYFCLQHLNYPLTFGSGTKLEIK
Kd [1]: 2 nM

B2: 48A6 anti-ILT3 antibody (antibody, V domains shown)
VH: EVQLVESGGDLMKPGGSLKLSCAASGFTFSSYGMSWVRQTPDKRLEWVATISSGGTYTFYPDSVKGRFTISRDNAKNTLYLQMSSLKSEDTAMYYCARRGWLLHYYAMDYWGQGTSVTVSS
VL: NIVLTQSPASLAVSLGQRATISCRPSESVDSFGNSFMHWFQQKPGQPPKLLIYLSSKLESGVPARFSGSGSRTDFTLTIDPVEADDAATYYCQQHNEDPFTFGSGTKLEIK
Kd [1]: 0.08 nM

B3: 16C5 anti-ILT3 antibody (antibody, V domains shown)
VH: EVQLQQSGPELVKPGASVKISCKASGYTFTDYNMDWVKQSHGKSLEWIGYIYPSNGGTGYNQKFKSKATLTVDKSSNTAYMELHSLTSEDSAVYYCARVPYYDYLYYYAMDYWGQGTSVTVSS
VL: QIVLSQSPAILSASPGEKVTMACRASSSVSFMHWYQQKPGSSPQPWIYATSNLASGVPARFSGSGSGTSYSLTISRVEAEDAATYYCQQWSTNPYMYTFGGGTKLEIK
Kd [1]: 0.7 nM

B4: 12A12 anti-ILT3 antibody (antibody, V domains shown)
VH: EVQLQQSGPELVKPGASVKISCKASGYTFTDYNMDWVKQSHGKSLEWIGYIYPNNGGTGYNQKFNSKATLTVDKSSSTAYMELHSLTSEDSAVYYCASSPYYDYVGSYAMDYWGQGTSVTVSS
VL: QIVLTQSPAIMSASLGERVTMTCTASSSVSSSYLHWYQQKPGSSPKLWIYSTSNLASGVPARFSGSGSGTSYSLTISSMEAEDAATYYCHQYHRSPRTFGGGTKLEIK
Kd [1]: 8.5 nM

B5: 53F10 anti-ILT3 antibody (antibody, V domains shown)
VH: EVQVVESGGGLVKPGGSLKLSCAASGFTFSDYGMHWVRQAPEKGLEWVAYISTGIITVYYADTVKGRFTMSRDNAKNTLFLQMTSLRSEDTAIYYCARADGRGAMDYWGQGTSVIVSS
VL: DIQMTQTTSSLSASLGDRVTISCRASQDISNFLNWYQQKPDGTVTLLIYYTSRLHSGVPSRFSGSGSGTDYSLTISNLEQEDFATYFCQQGNTLPWTFGGGTKLEIK
Kd [1]: 0.25 nM

B6: Hz45G10 anti-ILT3 antibody (antibody, V domains shown)
VH: EVQLVESGGGLVQPGGSLRLSCAASGFTFSDYGMHWVRQAPGKGLEWVAYIFSGSSTIYYADTVKGRFTISRDNAKNSLYLQMNSLRAEDTAVYYCARADGRGAMDYWGQGTLVTVSS
VL: DIQMTQSPSSLSASVGDRVTITCRASQDISKFLNWYQQKPGKAPKLLIYYTSRLHSGVPSRFSGSGSGTDFTFTISSLQPEDIATYFCQQGNTLPWTFGGGTKLEIK
fold higher affinity than the CD3 scFv (for CD3) [2]: 38 fold | Kd [1]: 0.13 nM

B7: ABX1446, ILT3xCD3 bispecific antibody, format F0 (bispecific antibody, human IgG1, kappa, L234A L235A)
chain: EVQLLESGGGLVQPGGSLKLSCAASGFTFNTYAMNWVRQAPGKCLEWVARIRSKYNNYATYYADSVKDRFTISRDDSKNTAYLQMNNLKTEDTAVYYCVRHGNFGNSYVSWFAYWGQGTLVTVSSGGGGSGGGGSGGGGSELVVTQEPSLTVSPGGTVTLTCRSSTGAVTTSNYANWVQQKPGQAPRGLIGGTNKRAPGTPARFSGSLLGGKAALTLSGVQPEDEAEYYCALWYSNLWVFGCGTKLTVLGGGGSDKTHTCPPCPAPEAAGGPSVFLFPPKPKDTLMISRTPEVTCVVVDVSHEDPEVKFNWYVDGVEVHNAKTKPREEQYNSTYRVVSVLTVLHQDWLNGKEYKCKVSNKALPAPIEKTISKAKGQPREPQVYTLPPSREEMTKNQVSLSCAVKGFYPSDIAVEWESNGQPENNYKTTPPVLDSDGSFFLVSKLTVDKSRWQQGNVFSCSVMHEALHNHYTQKSLSLSPGK
heavy: EVQLVESGGGLVQPGGSLRLSCAASGFTFSDYGMHWVRQAPGKGLEWVAYIFSGSSTIYYADTVKGRFTISRDNAKNSLYLQMNSLRAEDTAVYYCARADGRGAMDYWGQGTLVTVSSASTKGPSVFPLAPSSKSTSGGTAALGCLVKDYFPEPVTVSWNSGALTSGVHTFPAVLQSSGLYSLSSVVTVPSSSLGTQTYICNVNHKPSNTKVDKKVEPKSCDKTHTCPPCPAPEAAGGPSVFLFPPKPKDTLMISRTPEVTCVVVDVSHEDPEVKFNWYVDGVEVHNAKTKPREEQYNSTYRVVSVLTVLHQDWLNGKEYKCKVSNKALPAPIEKTISKAKGQPREPQVYTLPPSREEMTKNQVSLWCLVKGFYPSDIAVEWESNGQPENNYKTTPPVLDSDGSFFLYSKLTVDKSRWQQGNVFSCSVMHEALHNHYTQKSLSLSPGK
light: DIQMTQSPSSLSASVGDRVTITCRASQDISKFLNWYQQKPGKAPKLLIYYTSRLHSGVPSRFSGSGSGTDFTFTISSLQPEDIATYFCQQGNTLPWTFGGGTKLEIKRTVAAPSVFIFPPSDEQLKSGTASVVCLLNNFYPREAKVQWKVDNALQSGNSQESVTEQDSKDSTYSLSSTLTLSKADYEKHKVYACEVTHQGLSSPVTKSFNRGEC
PBMC Cytotoxicity, EC50 (pM), MOLM13 cells, naive T cells from PBMCs [3]: 46.8 pM | TDCC, EC50 (pM), MOLM13 cells, expanded T cells [3]: 10.9 pM | TDCC, EC50 (pM), H929 cells [4]: 18.6 pM | TDCC, EC50 (pM), MM1S cells [4]: 18.6 pM | TDCC, EC50 (pM), U226B1 cells [4]: 6.5 pM | TDCC, EC50 (pM), MOLM13 cells, expanded T cells [5]: 0.9 pM | TDCC vs. NKM-1 Cells, EC50 (pM), naive T cells from PBMCs [6]: 20.4 pM | TDCC vs. OCI-AML-2 Cells, EC50 (pM), naive T cells from PBMCs [6]: 2.5 pM | TDCC vs. NALM-1 Cells, EC50 (pM), expanded T cells [7]: 5.7 pM | TDCC vs. OCI-AML-2 Cells, EC50 (pM), expanded T cells [7]: 13.5 pM | TDCC, EC50 (pM), MOLM13 cells [8]: 11 pM

B8: ABX1520, ILT3xCD3 bispecific antibody, format F13 (bispecific antibody, human IgG1, kappa, L234A L235A)
chain: EVQLLESGGGLVQPGGSLKLSCAASGFTFNTYAMNWVRQAPGKCLEWVARIRSKYNNYATYYADSVKDRFTISRDDSKNTAYLQMNNLKTEDTAVYYCVRHGNFGNSYVSWFAYWGQGTLVTVSSGGGGSGGGGSGGGGSELVVTQEPSLTVSPGGTVTLTCRSSTGAVTTSNYANWVQQKPGQAPRGLIGGTNKRAPGTPARFSGSLLGGKAALTLSGVQPEDEAEYYCALWYSNLWVFGCGTKLTVLGGGGSDKTHTCPPCPAPEAAGGPSVFLFPPKPKDTLMISRTPEVTCVVVDVSHEDPEVKFNWYVDGVEVHNAKTKPREEQYNSTYRVVSVLTVLHQDWLNGKEYKCKVSNKALPAPIEKTISKAKGQPREPQVYTLPPSREEMTKNQVSLSCAVKGFYPSDIAVEWESNGQPENNYKTTPPVLDSDGSFFLVSKLTVDKSRWQQGNVFSCSVMHEALHNHYTQKSLSLSPGK
heavy: EVQLVESGGGLVQPGGSLRLSCAASGFTFSDYGMHWVRQAPGKGLEWVAYIFSGSSTIYYADTVKGRFTISRDNAKNSLYLQMNSLRAEDTAVYYCARADGRGAMDYWGQGTLVTVSSASTKGPSVFPLAPSSKSTSGGTAALGCLVKDYFPEPVTVSWNSGALTSGVHTFPAVLQSSGLYSLSSVVTVPSSSLGTQTYICNVNHKPSNTKVDKKVEPKSCGGGGSEVQLVESGGGLVQPGGSLRLSCAASGFTFSDYGMHWVRQAPGKGLEWVAYIFSGSSTIYYADTVKGRFTISRDNAKNSLYLQMNSLRAEDTAVYYCARADGRGAMDYWGQGTLVTVSSASTKGPSVFPLAPSSKSTSGGTAALGCLVKDYFPEPVTVSWNSGALTSGVHTFPAVLQSSGLYSLSSVVTVPSSSLGTQTYICNVNHKPSNTKVDKKVEPKSCDKTHTCPPCPAPEAAGGPSVFLFPPKPKDTLMISRTPEVTCVVVDVSHEDPEVKFNWYVDGVEVHNAKTKPREEQYNSTYRVVSVLTVLHQDWLNGKEYKCKVSNKALPAPIEKTISKAKGQPREPQVYTLPPSREEMTKNQVSLWCLVKGFYPSDIAVEWESNGQPENNYKTTPPVLDSDGSFFLYSKLTVDKSRWQQGNVFSCSVMHEALHNHYTQKSLSLSPGK
light: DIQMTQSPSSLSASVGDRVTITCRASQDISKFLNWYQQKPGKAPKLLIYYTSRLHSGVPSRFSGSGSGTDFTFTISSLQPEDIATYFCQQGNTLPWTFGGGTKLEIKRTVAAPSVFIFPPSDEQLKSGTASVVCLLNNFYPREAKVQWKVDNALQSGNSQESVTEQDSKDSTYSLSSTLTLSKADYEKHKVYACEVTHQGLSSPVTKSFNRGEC
PBMC Cytotoxicity, EC50 (pM), MOLM13 cells, naive T cells from PBMCs [3]: 53.7 pM | TDCC, EC50 (pM), MOLM13 cells, expanded T cells [3]: 1.4 pM | TDCC vs. NKM-1 Cells, EC50 (pM), naive T cells from PBMCs [6]: 2.6 pM | TDCC vs. OCI-AML-2 Cells, EC50 (pM), naive T cells from PBMCs [6]: 2 pM | TDCC vs. NALM-1 Cells, EC50 (pM), expanded T cells [7]: 3.6 pM | TDCC vs. OCI-AML-2 Cells, EC50 (pM), expanded T cells [7]: 23.3 pM

B9: anti-CD3 scFv clone (VH as SEQ ID NO: 149, VL as SEQ ID NO: 150) (scFv)
scFv: EVQLLESGGGLVQPGGSLKLSCAASGFTFNTYAMNWVRQAPGKCLEWVARIRSKYNNYATYYADSVKDRFTISRDDSKNTAYLQMNNLKTEDTAVYYCVRHGNFGNSYVSWFAYWGQGTLVTVSSGGGGSGGGGSGGGGSELVVTQEPSLTVSPGGTVTLTCRSSTGAVTTSNYANWVQQKPGQAPRGLIGGTNKRAPGTPARFSGSLLGGKAALTLSGVQPEDEAEYYCALWYSNLWVFGCGTKLTVL
notes: also called the CD3 scFv
Kd [9]: 6 nM
